The values that follow are results of earlier work, collected in publication PMC10301793 (Marine Drugs, 2023).

Where no end group is shown, it is not given here.

The target of the data set is α6/α3β4 nAChR (Rattus norvegicus, UniProt P04757+P12392+P43143). Conditions: cited from earlier work.

For “[D1G,∆Q14]LvIC: LvIC analogue (GCCANPVCNGKHC-NH2; ends and bridges not checked)”, the 50% inhibitory concentration (IC50) was 19 nM.
